Reference: patent publication US20180125921A1, “USE OF QBP1 PEPTIDE FOR THE INHIBITION OF MEMORY CONSOLIDATION” (CONSEJO SUPERIOR DE INVESTIGACIONES CIENTÍFICAS, priority 2015, published 2018)

Biological target: Orb2A PLD (Drosophila), Q9VSR3
Test: cell-based or functional assay

- formation of M (mechanostable) conformers, AFM-SMFS: 16.1%
B1: minimal active core of QBP1 (QBP1 fragment), Ac-WKWWPGIF-NH2 (peptide)
peptide: Ac-WKWWPGIF-NH2
